These results are taken from PMC4660432.

For data set [1], the system named is TAF1 double bromodomain (TAF1-BrD). Kind of data set: EMSA. The conditions noted are these: EMSA: 20 mM Tris-HCl pH 7.5, 40 mM NaCl, 0.75 mM EDTA, 1 mM DTT, 1 h at 25 C, 2.5 pmol NCP, 5% native PAGE in 0.2x TBE. On the technique in general: A gel shift assay detects complexes by their altered migration in electrophoresis.
For data set [2], the target named is K5/K8-di-acetylated nucleosome core particle (human) (UniProt P04908). Kind of data set: native gel or EMSA; 2.5 pmol NCP mixed with the TAF1-BrD at the indicated ratios; 20 mM Tris-HCl pH 7.5, 40 mM NaCl, 0.75 mM EDTA, 1 mM DTT; 1 hr at 25 °C; native 5% PAGE in 0.2x TBE; densitometry; dissociation constants estimated from triplicates.
Data set [3] addresses K16-acetylated nucleosome core particle (human) (UniProt P04908). Described as above.
For data set [4], the target named is K12-acetylated nucleosome core particle (human) (UniProt P04908). Described as above.
Data set [5] addresses unmodified nucleosome core particle (biochemical analyses; N11-thrombin-tagged H4) (human) (UniProt P04908). The data set is described as above.
Data set [6] deals with K5/K8/K12/K16-tetra-acetylated nucleosome core particle (biochemical analyses; N11-thrombin-tagged H4) (human) (UniProt P04908). Described as above.

As a reminder, the Kd is the equilibrium constant for the complex coming apart. As to H4-K5/K8/K12/K16-tetra-acetylated NCP, in data set [1] (histone H4 K5ac, K8ac, K12ac, K16ac), the Kd stood at 3.9 µM.
H4-K12ac NCP: in data set [1] (histone H4 K12ac), the Kd was found to be 12.3 µM.
For the substance “TAF1 double bromodomain (from UniProt P21675 1-1893) (domain or fragment)”, the Kd in data set [2] was 6.1 µM; in data set [3] it was 13.3 µM; in data set [4] it was 12.3 µM; in data set [5], 19.3 µM; in data set [6], 3.9 µM.
Consider unmodified NCP, for which the Kd in data set [1] was 19.3 µM.
H4-K5/K8-di-acetylated NCP showed a Kd in data set [1] (histone H4 K5ac, K8ac) of 6.1 µM.
In data set [1] (histone H4 K16ac), H4-K16ac NCP returned a Kd of 13.3 µM.
